Reference: US20100120171A1

What was measured:
[1] = molecular target: recombinant fragment of human VE-cadherin extracellular region, CAD 1-4 fragment (Asp48-Glu478, preceded by Met), SEQ ID NO: 4 (human) (UniProt P33151); assay: sandwich ELISA, BV9 capture, rabbit polyclonal detection; CAD1-4 at 5 ng/mL
[2] = molecular target: recombinant fragment of human VE-cadherin extracellular region, CAD 1-4 fragment (Asp48-Glu478, preceded by Met), SEQ ID NO: 4 (human) (UniProt P33151); assay: sandwich ELISA, BV9 capture, rabbit polyclonal detection; CAD1-4 at 1.25 ng/mL
[3] = molecular target: recombinant fragment of human VE-cadherin extracellular region, CAD 1-4 fragment (Asp48-Glu478, preceded by Met), SEQ ID NO: 4 (human) (UniProt P33151); assay: sandwich ELISA, BV9 capture, rabbit polyclonal detection; CAD1-4 at 10 ng/mL; first replicate
[4] = molecular target: recombinant fragment of human VE-cadherin extracellular region, CAD 1-4 fragment (Asp48-Glu478, preceded by Met), SEQ ID NO: 4 (human) (UniProt P33151); assay: sandwich ELISA, BV9 capture, rabbit polyclonal detection; CAD1-4 at 5 ng/mL; second replicate
[5] = molecular target: recombinant fragment of human VE-cadherin extracellular region, CAD 1-4 fragment (Asp48-Glu478, preceded by Met), SEQ ID NO: 4 (human) (UniProt P33151); assay: sandwich ELISA, BV9 capture, rabbit polyclonal detection; CAD1-4 at 10 ng/mL; second replicate
[6] = molecular target: recombinant fragment of human VE-cadherin extracellular region, CAD 1-4 fragment (Asp48-Glu478, preceded by Met), SEQ ID NO: 4 (human) (UniProt P33151); assay: sandwich ELISA, BV9 capture, rabbit polyclonal detection; CAD1-4 at 1.25 ng/mL; first replicate
[7] = molecular target: recombinant fragment of human VE-cadherin extracellular region, CAD 1-4 fragment (Asp48-Glu478, preceded by Met), SEQ ID NO: 4 (human) (UniProt P33151); assay: sandwich ELISA, BV9 capture, rabbit polyclonal detection; CAD1-4 at 1.25 ng/mL; second replicate
[8] = molecular target: recombinant fragment of human VE-cadherin extracellular region, CAD 1-4 fragment (Asp48-Glu478, preceded by Met), SEQ ID NO: 4 (human) (UniProt P33151); assay: sandwich ELISA, BV9 capture, rabbit polyclonal detection; CAD1-4 at 5 ng/mL; mean OD minus OD at 0 ng/mL
[9] = molecular target: recombinant fragment of human VE-cadherin extracellular region, CAD 1-4 fragment (Asp48-Glu478, preceded by Met), SEQ ID NO: 4 (human) (UniProt P33151); assay: sandwich ELISA, BV9 capture, rabbit polyclonal detection; CAD1-4 at 2.5 ng/mL; mean OD minus OD at 0 ng/mL
[10] = molecular target: recombinant fragment of human VE-cadherin extracellular region, CAD 1-4 fragment (Asp48-Glu478, preceded by Met), SEQ ID NO: 4 (human) (UniProt P33151); assay: as above; remark: listed apart in the source
[11] = molecular target: recombinant fragment of human VE-cadherin extracellular region, CAD 1-4 fragment (Asp48-Glu478, preceded by Met), SEQ ID NO: 4 (human) (UniProt P33151); assay: sandwich ELISA, BV9 capture, rabbit polyclonal detection; CAD1-4 at 1.25 ng/mL; mean OD minus OD at 0 ng/mL
[12] = molecular target: recombinant fragment of human VE-cadherin extracellular region, CAD 1-4 fragment (Asp48-Glu478, preceded by Met), SEQ ID NO: 4 (human) (UniProt P33151); assay: sandwich ELISA, BV9 capture, rabbit polyclonal detection; CAD1-4 at 0.63 ng/mL; mean OD minus OD at 0 ng/mL

Sequence of UniProt P33151 (P33151 other isoform, or with tags, fused parts or gaps limits assumed): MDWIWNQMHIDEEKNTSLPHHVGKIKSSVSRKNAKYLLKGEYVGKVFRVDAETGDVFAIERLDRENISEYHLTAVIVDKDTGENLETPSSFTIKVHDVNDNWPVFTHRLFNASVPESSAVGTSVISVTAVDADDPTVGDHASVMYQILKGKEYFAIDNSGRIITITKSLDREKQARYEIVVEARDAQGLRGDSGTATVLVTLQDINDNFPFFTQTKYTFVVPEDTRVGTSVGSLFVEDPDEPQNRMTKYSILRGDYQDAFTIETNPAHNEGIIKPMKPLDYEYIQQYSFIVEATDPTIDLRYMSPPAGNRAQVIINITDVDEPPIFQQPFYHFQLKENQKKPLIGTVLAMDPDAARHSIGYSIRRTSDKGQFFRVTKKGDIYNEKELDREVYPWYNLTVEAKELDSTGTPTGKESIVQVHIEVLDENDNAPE

Q: What does the source list for “anti-VEcadherin mouse mAb, clone BV9 (Abcam, product datasheet ab7047) (antibody)”?
A: OD1 [1]: 1.31 OD; OD2 [1]: 1.21 OD; mean OD [1]: 1.26 OD; OD1 [2]: 0.867 OD; OD2 [2]: 0.829 OD; mean OD [2]: 0.848 OD; OD [3]: 1.9 OD; OD [4]: 1.45 OD; OD [5]: 2 OD; OD [6]: 1.07 OD; OD [7]: 0.932 OD; Corr. OD [8]: 0.556 OD; Corr. OD [9]: 0.282 OD; Corr. OD [10]: 0.288 OD; Corr. OD [11]: 0.143 OD; Corr. OD [12]: 0.051 OD
